From the DeepSol protein solubility set

assay: soluble on expression in E. coli; label from the status in PepcDB or PDB records

Sequence | soluble on expression in E. coli
MSLVTIYDVAAKAGVSIKTVSRVMNNEPNVRPVMRERVLAAAGELGYSPNLSARSLAGSRSFVIAVFVDAALTIDHWQSERGADYLSRIQLGATLVCRDAGYHLLIELIDHEGPQVRQEVAALLAALKPDGVILTPPSSDNAVVLELLDRAGTPYVRVGPERAEGLGPRVHMDDVAAAREMTDHLIGLGHKRIGFIVGEPRYGASQARRDGYLEAMRAKGLSVPEFWVRQGDFTFQSGLEQAKALLALPERPTAIFASNDDMALGAIAAIADAGLMTPGDVSVAGFDDSPSSRFSRPQLTTVRQPVAEMSSVAAKLLIERSRGGASTERPVDELLPFTLIHRASTEGHHHHHH | not soluble
MLQVCCYTSEGYKYAVGIDLVRFFDTVNHSFLLRILSRTINDGRVISLIHKYLTSGVMIGKHYEPSIEGTPQGAPLSPLLSNILLNELDKELERRGHCFVRYADDSMILCKSKRSAERVCSSITDFSFYFTKGKCRLCVHKTTKEKFKRKVKSLTRRSNSMGYAQRKEILWQTFRGWIGYFKYADMRSLLIPLDQWYRRHLRMCIWKCWKRVKTRFSNLQKCGIPKGKALEHHHHHH | soluble
MGSDKIHHHHHHMELVSVKRIWEQGEHNAFTDLVLYQGTLFCVFREGSAHVSPDGALRILRSHDAGETWQSVALLTSAHADLRDGKLIEFRGELLLLGGGTQHDKSGLQSYLWRSKDGVHWSEPQAVADKGYWLWRLTEHQDALYGVGYRAGPDGDTRLYKSDDSVEFTPWMPVFNNQGYVNESSLVFHQGSCFCLLRRDPVWSDEFLGLLGHSLSPFKQWTWQTLDKRIGGPVLFVYQSRLMAVVRLYEGDIRTALVEINQDTGQLHEWLTLPSQGDTSYAGIVLDGDDLLVSYYSSHEQAMVSDLERSDTQDDKAQDKFKTMIYFAKIKLGQN | not soluble
GHHHHHHAIAENLYFQSKFLDVECLSELQRKLNDLELTDYRVRCQLEAYSCKPAGFDKKLSKSLEQKLVEQLEASPRVLEGSPVGSLEDQSARKTLINLICTLNAAHQDYDFSSLQLSRLKRVQDVRSLQQHVDSLFELFYRQLGLEFRQFLWENIGQIIRPEECEVYSYLPDYESDPYSASGALWSFCYFFYHKNMKKILFFSCTLSTRLAEDSESTESVDEEDFGKESSGLETPFAMFETVI | not soluble
MAERKYFGTDGVRGKVGQFPITPDFALKLGWAAGKILATQGTKQVLIGKDTRISGYMLESALEAGLAAAGLSAAFVGPMPTPAVAYLTRTFRAEAGIVISASHNPYYDNGIKFFSANGEKLPDEVEEAIEALLDQPMDYVESDQLGKAIRINDAAGRYIEFCKGTFPADASLKGYKIVVDCAHGATYHIAPNVMRELGAEVIEIGTHPNGLNINDKCGATDISALQQAVLTSKADLGVAYDGDGDRIIMVDHLGNKVDGDQILFIIAREALRSGKLKGGVVGTLMSNMGLEIALKHLAIPFTRANVGDRYVLEQLKEKNWKLGGENSGHIIVLDKNTTGDGIIASLEVLAAMEAHKMSLNDLTHAVPLFPQVLLNVRFDGGNNPLENAAVKALAKDIETRLVGKGRILLRKSGTEPLIRVMVECEDAVLAQQYAEEIVSAIQNH | not soluble
MAHHHHHHMLRITPSRYASKVTAGNAKNQAGSPRQKAKLFHVIPGTPVTPVEKLKEQRRRFGQDRYSRQPEYRPGRNVRMDPNTFTLYATTKGVMTIRTSRINPSYKWLDVEPDIQKVYRSRCMRAALQARGKASMMVAGNVHYRAELDHVTEPHWRERVMRVPKATERFQDPNYFTRGLVPSLRPLSRYSYE | soluble
SNAFHPVYSVQLEQKLVEKFNLKRALISLDQPNTNEQRKQVAALVSSYLNNNLQEGMAVAVGQGQNVAAVADHAGIVTQRNARFVSAIGGTHRSGDIINADHICRRLAKKYGGSSETLYAPAYVNDPSLRSAFMEHATIKETLSQARKAEFALVGIGDMDENSHMVKLGFFTPKEFVEARLNDGIVGDIGGFDFFKLDGTDADTLMRGRVIGLEMEDLRQIPNVVAMASESRKALSIMGALRTGVIDVLATSVSCAMALLNLAENEE | soluble
MEDRFTTRRRANLESIAQRLLEISQKTEEDEANEVGEDDQHPKNVLNILNTITKEGLEKIVNDIIANGTIIDEMFVVLQRFSEKPALSNPIQRPFYSNLDDNVPSFLRNLQKWRLRDELTKSIEQEEKLKAELKHANDQINMIVEHNKLELDALNKINLEAKAQEKIQEEIIQRCMKRVEDLESILETKEQKLNDFEEREYETTCQLTMKHSLELAEKDQKILELEKYIRNNENQDVVALTRELERLRSQATKDEPSTDDSTIKISMAQHRLELEAQAKMIKTLEAELSKRQEINAEQIERLIEERNSEIKNLIREQSKEIHEKNVKIAKFEIKDYANIFRQISKNIFTNKEAPGPSGRPKKRRMVDDPEDLFHNYEDLDDAKFLELAKIIETTKKDVTTLINTEGPSEDVSGNFMEAKKIHGALAQLKEKDQTVSDLKQKTNQNNKRVDQEDPIEEYEYDYNDESDGESVKSETSSWDQIDDIF | not soluble
MSSRKVSRAHYDEDELASAANMSLVAEGHFRGMKELLSTMDLDTDANTIPELKERAHMLCARFLGGAWKTVPLEHLRISRIKGGMSNMLFLCRLSEVYPPIRNEPNKVLLRVYFNPETESHLVAESVIFTLLSERHLGPKLYGIFSGGRLEEYIPSRPLSCHEISLAHMSTKIAKRVAKVHQLEVPIWKEPDYLCEALQRWLKQLTGTVDAEHRFDLPEECGVSSVNCLDLARELEFLRAHISLSKSPVTFCHNDLQEGNILLPKASSGNIRMPSLSDETQALGNSLSAFNPADPRLVLIDFEYASYNYRAFDFANHFIEWTIDYDIDEAPFYKIQTENFPENDQMLEFFLNYLREQGNTRENELYKKSEDLVQETLPFVPVSHFFWGVWGLLQVELSPVGFGFADYGRDRLSLYFKHKQLLKNLASHQ | soluble
MLETRATTAKQLVQAPEQPAPQPEVAPPTTEQPAPAPAPGTTPGTENFNTPNATPETTEPRVLVSEVLVRPQSGQLTPELETQVYNVIRTQPGRTTTRSQLQEDINAIFGTGFFSNVQASPEDTPLGVRVSFIVQPNPVLSKVEIQANPGTNVPSVLPQATADEIFRAQYGKILNLRDLQEGIKELTKRYQDQGYVLANVVGAPQVSENGVVTLQVAEGVVENISVRFRNKEGQDVNEQGQPIRGRTQDYIITREVELKPGQVFNRNTVQKDLQRVFGTGLFEDVNVSLDPGTDPTKVNVVVNVVERSLEHHHHHH | soluble
MAHHHHHHMFLRPHEINILMNEMKIIYEFKKEYYEIILNENNADDNVIDLFEKNTNKCNIEIKPYDDINSDLLDFDQFKMFNIDKDDIKKKNEDKKDEDRIKYILDKESYNNSIDKLNDNSCDESCYITDDELCKQINNPFDNTYNNKFVVKYKEYFEENSFIVKKGDIYGADFLLYITEQKYAHSLYAVYIIYKHYILRDLIRILRVSHSIKKKVILILWNELNCFNISDTLVYIKSYKYK | soluble
MAHHHHHHMLRHCTAHRRYRTAWRELLHPLPVRARKMEWLKRDAVEENEEILRRPYYTIKSYALPPAVGRQESIHNSNNIRGGMHSSHSLDLIMRQPRRVKTPEQLQALRDRLRFIGVTGPMPQATSVSTKSYADTYGSRLRPRYPESWDTVPPHQPSRELL | soluble
MLERQQDSFRFICRTCPFYYQVEGKMERKVFGLQKKQEADILGGDKQWELADQTDTLCPRCSHGKAYFFQMQTRSADEPMSTFYRCVHCGHQWKEN | soluble
MKIDRLKTDLAKAREKAAEWQARVRDLEKQITEQENLEILQVVRSVAASPEELRGLLDMIRGAKMPMAGTARTFENMDKEEI | not soluble
MSLSNYSTGELAKLCNVTTRTIQYYDRKGILKPQGFTEGKRRVYTEQQRQTLELILLLKDLGCALSDIDMLLKGEGTLKTLNTLLTMKQQEINQQVKQQQAVLNKIKNVQYYVNEGHHHHHH | not soluble
GSPEETLVIALYDYQTNDPQELALRCDEEYYLLDSSEIHWWRVQDKNGHEGYAPSSYLVEKSP | soluble
MAHHHHHHMPKEVQEKDEFFYFFNHFCFYIINETKQYALSYKMNFAFYLPYGSLGVDVLKNVFDYLHYLDVPTILDIKMNDIGNTVKHYSKFIFHYLRSDSCTANIYMGTHMLRDICLDEECKRHYSTFVLIKTTNPDSHIFQNRLSLDGKEAYVVIADEAQKMAKQLHLEENGEFVGFVVGANCYDEMKKIRELFPDCYILAPGVGAQKGDLRKTLCNGYSKNYERLLINVGRAITKSGNPQQAAREYYHQIKEILAEL | not soluble
